Assay results taken from patent US11612667B2, “Enhanced in vivo targeting of radiolabelled peptides with the means of enzyme inhibitors” (Advanced Accelerator Applications USA, Inc., priority 2011, dated 2023).
pIC50: −log10 of the molar value. Read-outs that look alike come from different tables or passages of the source. Non-standard residues stand in square brackets, D forms with d. Residues, ends and D or L forms follow the SMILES beside them. *: point of attachment. DOTA = O=C(O)CN1CCN(CC(=O)O)CCN(CC(=O)*)CCN(CC(=O)O)CC1; Tle = CC(C)(C)[C@H](N)C(=O)O; X1 = NCCNCC(CNCCN)C(=O)*; Dab = NCC[C@H](N)C(=O)O; βAla = NCCC(=O)O

Assays:
AR4-2J tumors (rCCK2R+) = tested on: AR4-2J tumors (rCCK2R+); parameters: species or system SCID mice; settings: mouse, in vivo
Description: FIG. 3D: Biodistribution of ^111In-DOTA-MG11 in SCID mice bearing AR4-2J tumors (rCCK2R^+) at 4 h pi.
Biodistribution results in SCID mice bearing rCCK2R^+ AR4-2J tumors 4 h after injection of ^111In-DOTA-MG11 alone or together with PA or 1 h after ip injection of race are shown in FIG. 3B.

[1] = parameters: species or system Swiss albino mice; settings: mouse, in vivo, 5 min
Description: Whole blood was collected 5 min postinjection (pi), blood cells were removed and major proteins were precipitated and then the supernatant was analyzed by RP-HPLC coupled to a gamma detector.
Alternatively, the dual NEP and ACE inhibitor racecadotril (race; 2.5 mg) was ip injected 45-60 min prior to radioligand injection and the same procedure was followed as described above.
To test the in vivo stability, ^111In-DOTA-MG11 was injected in the tail vein of Swiss albino mice and 5 min afterwards blood was collected, blood cells were removed and major proteins were precipitated and then the supernatant was analyzed by RP-HPLC coupled to a gamma detector. As shown in the radiochromatogram of FIG. 3A, the major part of ^111In-DOTA-MG11 was consumed during this period (<5% intact peptide still detected), in agreement with previous reports. Further, ^111In-DOTA-MG11 was co-injected together with PA or injected 1 h after ip injection of race (2.5 mg) in more mice and the same protocol was followed as above. Amazingly, the percentage of ^111In-DOTA-MG11 found intact in the blood of the PA-treated mice was raised from <5% to 75% and in the race-pretreated mice to 73%.
For ex vivo blood analysis, [^99mTc]Demotensin 6 was injected in the tail vein of Swiss albino mice and blood collected 5 min thereafter was analyzed as previously described. The effect of PA on stability was studied by co-injection of PA along with [^99mTc]Demotensin 6. Furthermore, a PA dose study was performed with the PA injected dose ranging from 300 μg down to 0.03 μg and results are summarized in FIG. 4A.
Additional groups of radiopeptides with relevance for nuclear medicine applications have been studied for their in vivo stability. Radiopeptides were injected in the tail vein of healthy mice, either alone, or with a NEP inhibitor (PA—300 μg), or with a NEP (PA—300 μg) and an ACE (Lis—300 μg) inhibitor mixture; alternatively, another NEP inhibitor prodrug (race—2.5 mg) was ip injected in the animals ˜45 min prior to radioligand injection. Blood was collected 5 min afterwards, and analyzed by RP-HPLC after suitable preparation, as previously described.

AR4-2J tumors (rsst2+) = tested on: AR4-2J tumors (rsst2+); parameters: species or system SCID mice; settings: SCID, mouse, in vivo, 4 h
Description: FIG. 1D: Biodistribution of [(^111In-DOTA)Ala^1]Somatostatin-14 in SCID mice bearing AR4-2J tumors (rsst2^+) at 4 h pi.
FIG. 2C: Biodistribution of [(^111In-DOTA)Ala^1, DTrp^8]Somatostatin-14 in SCID mice bearing AR4-2J tumors (rsst2^+) at 4 h pi.
Of great importance is the direct translation of PA-(or race) induced radiopeptide stabilization into meaningful and dramatic increase of tumor uptake in animals. Indeed, uptake in the rsst2^+ AR4-2J tumor after injection of ^111In[(DOTA)Ala^1]SS14 reached 13.87±2.4% ID/g in the PA-treated group at 4 h pi vs. 0.67±0.1% ID/g in the non-treated controls, while in the race pre-treated mice tumor values reached 3.51±0.2% ID/g, as presented in FIG. 1B. The corresponding values for the DTrp^8-analog, shown in FIG. 2B, reach 9.06±3.57% ID/g (PA group), 4.18±2.28% ID/g (race group) and 1.82±0.36% ID/g (non-treated controls).

[2] = human; cited from earlier work
WiDr tumors (hNTS1+) = assay: Biodistribution / tumor uptake in SCID mice bearing WiDr tumors (hNTS1+); settings: SCID, mouse, in vivo, 4 h
Description: FIG. 4H: Biodistribution of [^99mTc]Demotensin 6 in SCID mice bearing WiDr tumors (hNTS1^+) at 4 h pi. Bars represent average uptake as mean % injected dose per gram (% ID/g) of at least 4 animals with standard deviation (control at 4 h 2nd bars); three additional groups of animals received either excess NT(1-13) and PA (100 μg blocker and 300 μg PA—first bars), or PA (300 μg PA—3rd bars) or PA and Lis (300 μg PA+250 μg Lis—4th bars). Bl=blood, Li=liver, He=heart, Ki=kidneys, St=stomach, In=intestines, Sp=spleen, Mu=muscle, Lu=lungs, Pa=pancreas, Fe=femur and Tu=WiDr tumor.
FIG. 5H: Biodistribution of [^99mTc]Demotensin 1 in SCID mice bearing WiDr tumors (hNTS1+) at 4 h pi. Bars represent average uptake as mean % injected dose per gram (% ID/g) of at least 4 animals with standard deviation (control at 4 h 2nd bars); three additional groups of animals received either excess NT and PA (100 μg and 300 μg PA, respectively—first bars), or PA (300 μg PA—3rd bars) or PA and Lis (300 μg PA+300 μg Lis—4th bars). Bl=blood, Li=liver, He=heart, Ki=kidneys, St=stomach, In=intestines, Sp=spleen, Mu=muscle, Lu=lungs, Pa=pancreas, Fe=femur and Tu=WiDr tumor.
In FIG. 4B the effects of such regimens on SCID mice bearing the human colon adenocarcinoma WiDr tumor (a hNTS1R^+ tumor) on enhancing in vivo tumor targeting are presented.
In FIG. 5B the effects of above regimens on SCID mice bearing WiDr tumors (hNTS1R^+) on enhancing in vivo tumor targeting are shown.

[3] = mouse; cited from earlier work
[4] = tested on: human prostate adenocarcinoma PC-3 xenografts (GRPR+); parameters: species or system SCID mice; settings: SCID, mouse, in vivo, 4 h
Description: FIG. 6C: Biodistribution of [^99mTc]SAR-NC1 in SCID mice bearing human prostate adenocarcinoma PC-3 xenografts (GRPR^+) at 4 h pi.
In FIG. 6B and FIG. 7B, the biodistribution of [^99mTc]SAR-NC1 and [^99mTc]SAR-NC6 in SCID mice bearing human prostate adenocarcinoma PC-3 xenografts (GRPR^+) at 4 h respectively, after injection of the radioligand alone or with co-injection of PA (300 μg) are shown.
It is interesting to note that with co-injection of the blocker and PA tumor values were minimal (0.69±0.03% ID/g) showing that PA provoked a GRPR-mediated increase in tumor uptake.
The effect of PA-induced stabilization of [^99mTc]Demobesin 1 on tumor uptake is illustrated in FIG. 10B, showing the biodistribution at 4 h pi after injection of [^99mTc]Demobesin 1 in SCID mice bearing human PC-3 xenografts (GRPR^+) (control), or with PA (300 μg).

NEP = NEP (Homo sapiens, UniProt P08473); settings: reversible competitive inhibitor; cited from earlier work
Chain of NEP (P08473 whole entry): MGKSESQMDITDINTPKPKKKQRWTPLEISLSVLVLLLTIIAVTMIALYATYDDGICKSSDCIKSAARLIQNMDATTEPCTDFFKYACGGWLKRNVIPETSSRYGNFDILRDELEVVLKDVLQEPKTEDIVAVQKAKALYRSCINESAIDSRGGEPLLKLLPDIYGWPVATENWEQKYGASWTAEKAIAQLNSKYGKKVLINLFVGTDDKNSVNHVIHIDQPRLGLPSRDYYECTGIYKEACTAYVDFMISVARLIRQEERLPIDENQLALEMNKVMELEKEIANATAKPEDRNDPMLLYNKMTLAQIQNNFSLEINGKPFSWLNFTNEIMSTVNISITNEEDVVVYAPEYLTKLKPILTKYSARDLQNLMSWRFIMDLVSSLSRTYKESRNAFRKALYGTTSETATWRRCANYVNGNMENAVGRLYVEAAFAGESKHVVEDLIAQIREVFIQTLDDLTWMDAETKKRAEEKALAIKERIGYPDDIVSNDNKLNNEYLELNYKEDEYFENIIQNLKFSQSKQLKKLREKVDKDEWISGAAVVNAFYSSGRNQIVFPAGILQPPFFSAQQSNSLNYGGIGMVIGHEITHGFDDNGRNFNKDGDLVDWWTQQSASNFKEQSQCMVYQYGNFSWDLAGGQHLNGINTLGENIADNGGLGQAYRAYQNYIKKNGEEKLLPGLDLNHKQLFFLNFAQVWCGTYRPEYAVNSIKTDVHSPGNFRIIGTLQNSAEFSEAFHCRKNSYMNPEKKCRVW

With `CSCC[C@H](NC(=O)[C@H](Cc1c[nH]c2ccccc12)NC(=O)CNC(=O)[C@H](Cc1ccc(O)cc1)NC(=O)[C@H](C)NC(=O)[C@@H](CCC(=O)O)NC(=O)CN1CCN(CC(=O)O)CCN(CC(=O)O)CCN(CC(=O)O)CC1)C(=O)N[C@@H](CC(=O)O)C(=O)N[C@@H](Cc1ccccc1)C(N)=O` [^111In-DOTA-MG11, [(^111In-DOTA)DGlu^10]Minigastrin(10-17), metal not drawn] ({DOTA}-[dE]AYGWMDF-NH2) the “uptake in AR4-2J tumor” value (AR4-2J tumors (rCCK2R+); SCID, 4 h) was 1.22±0.06 % ID/g, the “increase in the tumor by PA administration” value (AR4-2J tumors (rCCK2R+)) was over 9 fold and the “percentage of parent peptide remaining intact” value [1] was under 5%.

For `C[C@H](NC(=O)CN1CCN(CC(=O)O)CCN(CC(=O)O)CCN(CC(=O)O)CC1)C(=O)NCC(=O)N[C@H]1CSSC[C@@H](C(=O)O)NC(=O)[C@H](CO)NC(=O)[C@H]([C@@H](C)O)NC(=O)[C@H](Cc2ccccc2)NC(=O)[C@H]([C@@H](C)O)NC(=O)[C@H](CCCCN)NC(=O)[C@H](Cc2c[nH]c3ccccc23)NC(=O)[C@H](Cc2ccccc2)NC(=O)[C@H](Cc2ccccc2)NC(=O)[C@H](CC(N)=O)NC(=O)[C@H](CCCCN)NC1=O` [[(^111In-DOTA)Ala^1]Somatostatin-14, metal not drawn], the “uptake in AR4-2J tumor” value (AR4-2J tumors (rsst2+)) was 0.67±0.1 % ID/g.

For `CC(C)C[C@H](NC(=O)[C@@H](NC(=O)[C@H](Cc1ccc(O)cc1)NC(=O)[C@@H]1CCCN1C(=O)[C@H](CCN)NC(=O)[C@H](CCCNC(=N)N)NC(=O)CCNC(=O)C(CNCCN)CNCCN)C(C)(C)C)C(=O)O` [[^99mTc]Demotensin 6, ^99mTc-N4-βAla-Arg-Dab-Pro-Tyr-Tle-Leu-OH, metal not drawn] ({X1-βAla}-R[Dab]PY[Tle]L-OH), the “in vitro stability in plasma” value [2] is given as “stable”, the “uptake in WiDr tumor” value (WiDr tumors (hNTS1+)) is given as 1.61±0.42 % ID/g and the “in vitro stability in plasma” value [3] is given as “stable”. The “percentage of parent peptide remaining intact” value [1] was 52%.

For `CCCC[C@H](NC(=O)[C@H](CC(C)C)NC(=O)[C@H](Cc1c[nH]cn1)NC(=O)CNC(=O)[C@@H](NC(=O)[C@H](C)NC(=O)[C@H](Cc1c[nH]c2ccccc12)NC(=O)[C@H](CCC(N)=O)NC(=O)[C@H](CC(N)=O)NC(=O)CNC(=O)[C@H](Cc1ccc(O)cc1)NC(=O)[C@H](CCCN=C(N)N)NC(=O)[C@H](CCC(N)=O)NC(=O)[C@@H]1CCCN1C(=O)C(CNCCN)CNCCN)C(C)C)C(N)=O` [[^99mTc]Demobesin 4, metal not drawn], the “in vitro stability in plasma” value [3] is given as “very high”, the “uptake in PC-3 tumor” value [4] is given as 11.26±1.81 % ID/g and the “percentage of parent peptide remaining intact” value [1] is given as 26%.

In the case of `CC(C)C[C@H](NP(=O)(O)O[C@@H]1O[C@@H](C)[C@H](O)[C@@H](O)[C@H]1O)C(=O)N[C@@H](Cc1c[nH]c2ccccc12)C(=O)O` [Phosphoramidon, phosphoramidon], the pIC50 (NEP) is given as 7.47.
